This note sets out measurements from US20110027820A1.

The target in this experiment is Gal4 DNA binding domain (DBD) fused to the RXR ligand binding domain (GBD:RXR) (yeast; human) (UniProt P04386). Nature of the experiment: cell-based or functional assay.

In the case of “human nuclear receptor coactivator ACTR fused to the yeast Gal4 activation domain (ACTR:GAD) (from UniProt Q9Y6Q9 1-1424)”, the increase in the sensitivity of chemical complementation (yeast growth in response to 9cRA) against GBD:RXR alone turned out to be 1000 fold.
